Laboratory results as given in patent US20250076311A1 (Chugai, published 2025).

Assays:
[1] = target: T1, human FcγRIIIaV extracellular domain with C-terminal His-tag (human, UniProt P08637 17-208); assay: SPR (Biacore), antibody captured, FcgR analyte
T1 construct: also called human FcgRIIIaV
Method: (§1) The kinetic analysis of interactions between these antibodies and FcγR was carried out using BIACORE® T200 or BIACORE® 4000 (GE Healthcare). HBS-EP+ (GE Healthcare) was used as the running buffer, and the measurement temperature was set to 25° C. […] After the measurement, the antibody captured on the chip was washed off by allowing reaction with 10 mM glycine-HCl, pH1.5 and 25 mM NaOH so that the chip was regenerated and used repeatedly. The sensorgrams obtained as measurement results were analyzed by the 1:1 Langmuir binding model using the BIACORE® Evaluation Software to calculate the binding rate constant ka (L/mol/s) and dissociation rate constant kd (1/s), and the dissociation constant KD (mol/L) was calculated from these values. […] Regarding such interactions, KD values were calculated using the following 1:1 binding model described in BIACORE® T100 Software Handbook BR1006-48 Edition AE.

[2] = target: T2, human FcγRIIaR extracellular domain with C-terminal His-tag (human, UniProt P12318 34-217); assay: SPR (Biacore), antibody captured, FcgR analyte
T2 construct: also called human FcgRIIaR; FcγRIIa (type R)
T2 chain: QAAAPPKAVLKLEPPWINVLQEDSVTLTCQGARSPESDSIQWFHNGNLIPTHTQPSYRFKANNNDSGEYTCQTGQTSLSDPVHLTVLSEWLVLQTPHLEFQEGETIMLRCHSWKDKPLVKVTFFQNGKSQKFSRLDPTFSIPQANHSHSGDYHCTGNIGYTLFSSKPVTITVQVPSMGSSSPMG
Method: as §1

[3] = target: T3, cynomolgus monkey FcγRIIa3 extracellular domain with C-terminal His-tag (cynomolgus monkey); assay: SPR (Biacore), KD of SG1 / KD of variant
T3 construct: also called cyno FcgRIIa3; cynoFcγRIIa3
T3 chain: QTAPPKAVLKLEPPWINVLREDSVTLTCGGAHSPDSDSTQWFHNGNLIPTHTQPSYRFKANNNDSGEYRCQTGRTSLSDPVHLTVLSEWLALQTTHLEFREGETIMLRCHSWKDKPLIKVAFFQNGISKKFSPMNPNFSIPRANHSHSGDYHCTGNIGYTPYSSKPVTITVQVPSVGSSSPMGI
Method: as §1

[4] = target: T4, cynomolgus monkey FcγRIIb extracellular domain, His-tagged (cynomolgus monkey); assay: SPR (BIACORE), antibody captured, FcγR analyte, 25 C; KD of SG1 divided by KD of variant
T4 construct: also called cyno FcγRIIb; cynoFcgRIIb
T4 chain: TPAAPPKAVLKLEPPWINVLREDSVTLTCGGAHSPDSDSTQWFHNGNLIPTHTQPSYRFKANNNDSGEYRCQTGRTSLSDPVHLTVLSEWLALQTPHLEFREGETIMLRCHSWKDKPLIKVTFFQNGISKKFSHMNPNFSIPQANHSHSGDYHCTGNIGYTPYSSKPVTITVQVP
Method: as §1

[5] = target: T5, cynomolgus monkey FcγRIIIaS extracellular domain, His-tagged (cynomolgus monkey, UniProt Q8SPW2 21-206 at identity 1.00)); assay: as above
T5 construct: also called cyno FcγRIIIaS; cynoFcgRIIIaS
T5 chain: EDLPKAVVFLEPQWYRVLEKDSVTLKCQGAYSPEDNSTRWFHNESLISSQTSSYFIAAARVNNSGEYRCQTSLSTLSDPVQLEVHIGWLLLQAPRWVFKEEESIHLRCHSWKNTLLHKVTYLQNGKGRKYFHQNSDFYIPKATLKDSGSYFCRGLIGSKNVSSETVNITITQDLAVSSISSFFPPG
Method: as §1

[6] = target: T6, cynomolgus monkey FcγRIIa2 extracellular domain with C-terminal His-tag (cynomolgus monkey); assay: SPR (Biacore), antibody captured, FcgR as analyte
T6 construct: also called cyno FcgRIIa2; cynoFcγRIIa2
T6 chain: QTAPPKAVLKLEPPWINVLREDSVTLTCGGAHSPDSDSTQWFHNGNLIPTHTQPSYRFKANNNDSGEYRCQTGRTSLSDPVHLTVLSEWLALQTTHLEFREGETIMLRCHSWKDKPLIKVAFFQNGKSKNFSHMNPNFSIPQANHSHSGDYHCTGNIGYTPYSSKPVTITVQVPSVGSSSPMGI
Method: as §1

T1 sequence (P08637 17-208 F176V): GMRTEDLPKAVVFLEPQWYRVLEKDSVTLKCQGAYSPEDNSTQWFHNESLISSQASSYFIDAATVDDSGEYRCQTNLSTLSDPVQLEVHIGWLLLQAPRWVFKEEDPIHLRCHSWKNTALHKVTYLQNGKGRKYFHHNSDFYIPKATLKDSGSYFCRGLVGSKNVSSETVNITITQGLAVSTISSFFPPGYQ

B1: M103205H795-MY265/M103202L889-SK1 (antibody)
heavy: QVTLKESGPVLVKPTETLTLTCTVSGIDLSHDDISWVRQAPGKGLEWVGIISYAGSTYYASWAKGRLTISKDTSKNQVVLTMTNMDPVDTATYYCARGVPAYSHGGDLWGQGTLVTVSSASTKGPSVFPLAPSSKSTSGGTAALGCLVKDYFPEPVTVSWNSGALTSGVHTFPAVLQSSGLYSLSSVVTVPSSSLGTQTYICNVNHKPSNTKVDKKVEPKSCDKTHTCPPCPAPELLTGPSVFLFPPKPKDTLMISRTPEVTCVVVDVSDEDPEVKFNWYVDGVEVHNAKTKPREEQYNSTYRVVSVLTVLHQDWLNGKEYKCKVSNKALPKPIEKTISKAKGQPREPQVYTLPPSREEMTKNQVSLTCLVKGFYPSDIAVEWESNGQPENNYKTTPPVLDSDGSFFLYSKLTVDKSRWQQGNVFSCSVMHEALHNHYTQKSLSLSP
light: DIVMTQSPATLSLSPGERATLSCTSSQSVYHANWLSWFQQKPGQPPKLLIYWASTLAYGVPSRFSGSGSGTDFTLTISSLQPEDAATYYCAGGYGGGRYAFGQGTKVEIKRTVAAPSVFIFPPSDEQLKSGTASVVCLLNNFYPREAKVQWKVDNALQSGNSQESVTEQDSKDSTYSLSSTLTLSKADYEKHKVYACEVTHQGLSSPVTKSFNRGEC
notes: Substitutions in EU numbering on SG1; the cell prints I236T, the text gives Thr at 236 of MY201 (G236T)
[1]
  Kd: 5400 nM

B2: M103205H795-MY448/M103202L889-SK1 (antibody, human IgG1, kappa)
heavy: QVTLKESGPVLVKPTETLTLTCTVSGIDLSHDDISWVRQAPGKGLEWVGIISYAGSTYYASWAKGRLTISKDTSKNQVVLTMTNMDPVDTATYYCARGVPAYSHGGDLWGQGTLVTVSSASTKGPSVFPLAPSSKSTSGGTAALGCLVKDYFPEPVTVSWNSGALTSGVHTFPAVLQSSGLYSLSSVVTVPSSSLGTQTYICNVNHKPSNTKVDKKVEPKSCDKTHTCPPCPAKELLTGPSVFLFPPKPKDTLMISRTPEVTCVVVDVSDEDPEVKFNWYVDGVEVHNAKTKPREEQYNSTYRVVSVLTVLHQDWLNGKEYKCKVSNKALPKPIEKTISKAKGQPREPQVYTLPPSREEMTKNQVSLTCLVKGFYPSDIAVEWESNGQPENNYKTTPPVLDSDGSFFLYSKLTVDKSRWQQGNVFSCSVMHEALHNHYTQKSLSLSP
light: DIVMTQSPATLSLSPGERATLSCTSSQSVYHANWLSWFQQKPGQPPKLLIYWASTLAYGVPSRFSGSGSGTDFTLTISSLQPEDAATYYCAGGYGGGRYAFGQGTKVEIKRTVAAPSVFIFPPSDEQLKSGTASVVCLLNNFYPREAKVQWKVDNALQSGNSQESVTEQDSKDSTYSLSSTLTLSKADYEKHKVYACEVTHQGLSSPVTKSFNRGEC
notes: Substitutions in EU numbering on SG1
[2]
  Kd: 21 nM
[1]
  Kd: 1300 nM
[3]
  KD fold (SG1 = 1): 0.6 fold

B3: M103205H795-MY445/M103202L889-SK1 (antibody, human IgG1, kappa, name in EU numbering)
heavy: QVTLKESGPVLVKPTETLTLTCTVSGIDLSHDDISWVRQAPGKGLEWVGIISYAGSTYYASWAKGRLTISKDTSKNQVVLTMTNMDPVDTATYYCARGVPAYSHGGDLWGQGTLVTVSSASTKGPSVFPLAPSSKSTSGGTAALGCLVKDYFPEPVTVSWNSGALTSGVHTFPAVLQSSGLYSLSSVVTVPSSSLGTQTYICNVNHKPSNTKVDKKVEPKSCDKTHTCPPCPAGELLTGPSVFLFPPKPKDTLMISRTPEVTCVVVDVSDEDPEVKFNWYVDGVEVHNAKTKPREEQYNSTYRVVSVLTVLHQDWLNGKEYKCKVSNKALPKPIEKTISKAKGQPREPQVYTLPPSREEMTKNQVSLTCLVKGFYPSDIAVEWESNGQPENNYKTTPPVLDSDGSFFLYSKLTVDKSRWQQGNVFSCSVMHEALHNHYTQKSLSLSP
light: DIVMTQSPATLSLSPGERATLSCTSSQSVYHANWLSWFQQKPGQPPKLLIYWASTLAYGVPSRFSGSGSGTDFTLTISSLQPEDAATYYCAGGYGGGRYAFGQGTKVEIKRTVAAPSVFIFPPSDEQLKSGTASVVCLLNNFYPREAKVQWKVDNALQSGNSQESVTEQDSKDSTYSLSSTLTLSKADYEKHKVYACEVTHQGLSSPVTKSFNRGEC
[4]
  KD fold (SG1 = 1): 1.3 fold
[5]
  KD fold (SG1 = 1): 0.2 fold

B4: M103205H795-MY446/M103202L889-SK1 (antibody, human IgG1, kappa, name in EU numbering)
heavy: QVTLKESGPVLVKPTETLTLTCTVSGIDLSHDDISWVRQAPGKGLEWVGIISYAGSTYYASWAKGRLTISKDTSKNQVVLTMTNMDPVDTATYYCARGVPAYSHGGDLWGQGTLVTVSSASTKGPSVFPLAPSSKSTSGGTAALGCLVKDYFPEPVTVSWNSGALTSGVHTFPAVLQSSGLYSLSSVVTVPSSSLGTQTYICNVNHKPSNTKVDKKVEPKSCDKTHTCPPCPAHELLTGPSVFLFPPKPKDTLMISRTPEVTCVVVDVSDEDPEVKFNWYVDGVEVHNAKTKPREEQYNSTYRVVSVLTVLHQDWLNGKEYKCKVSNKALPKPIEKTISKAKGQPREPQVYTLPPSREEMTKNQVSLTCLVKGFYPSDIAVEWESNGQPENNYKTTPPVLDSDGSFFLYSKLTVDKSRWQQGNVFSCSVMHEALHNHYTQKSLSLSP
light: DIVMTQSPATLSLSPGERATLSCTSSQSVYHANWLSWFQQKPGQPPKLLIYWASTLAYGVPSRFSGSGSGTDFTLTISSLQPEDAATYYCAGGYGGGRYAFGQGTKVEIKRTVAAPSVFIFPPSDEQLKSGTASVVCLLNNFYPREAKVQWKVDNALQSGNSQESVTEQDSKDSTYSLSSTLTLSKADYEKHKVYACEVTHQGLSSPVTKSFNRGEC
[4]
  KD fold (SG1 = 1): 2.5 fold
[5]
  KD fold (SG1 = 1): 0.2 fold

B5: M103205H795-MY448/M103202L889-SK1 (antibody, human IgG1, kappa, name in EU numbering)
heavy: QVTLKESGPVLVKPTETLTLTCTVSGIDLSHDDISWVRQAPGKGLEWVGIISYAGSTYYASWAKGRLTISKDTSKNQVVLTMTNMDPVDTATYYCARGVPAYSHGGDLWGQGTLVTVSSASTKGPSVFPLAPSSKSTSGGTAALGCLVKDYFPEPVTVSWNSGALTSGVHTFPAVLQSSGLYSLSSVVTVPSSSLGTQTYICNVNHKPSNTKVDKKVEPKSCDKTHTCPPCPAKELLTGPSVFLFPPKPKDTLMISRTPEVTCVVVDVSDEDPEVKFNWYVDGVEVHNAKTKPREEQYNSTYRVVSVLTVLHQDWLNGKEYKCKVSNKALPKPIEKTISKAKGQPREPQVYTLPPSREEMTKNQVSLTCLVKGFYPSDIAVEWESNGQPENNYKTTPPVLDSDGSFFLYSKLTVDKSRWQQGNVFSCSVMHEALHNHYTQKSLSLSP
light: DIVMTQSPATLSLSPGERATLSCTSSQSVYHANWLSWFQQKPGQPPKLLIYWASTLAYGVPSRFSGSGSGTDFTLTISSLQPEDAATYYCAGGYGGGRYAFGQGTKVEIKRTVAAPSVFIFPPSDEQLKSGTASVVCLLNNFYPREAKVQWKVDNALQSGNSQESVTEQDSKDSTYSLSSTLTLSKADYEKHKVYACEVTHQGLSSPVTKSFNRGEC
[4]
  KD fold (SG1 = 1): 0.8 fold
[5]
  KD fold (SG1 = 1): 0.2 fold

B6: M103205H795-MY389 / M103202L889-SK1 (antibody, human IgG1, kappa, name in EU numbering)
heavy: QVTLKESGPVLVKPTETLTLTCTVSGIDLSHDDISWVRQAPGKGLEWVGIISYAGSTYYASWAKGRLTISKDTSKNQVVLTMTNMDPVDTATYYCARGVPAYSHGGDLWGQGTLVTVSSASTKGPSVFPLAPSSKSTSGGTAALGCLVKDYFPEPVTVSWNSGALTSGVHTFPAVLQSSGLYSLSSVVTVPSSSLGTQTYICNVNHKPSNTKVDKKVEPKSCDKTHTCPPCPAPELLTGPLVFLFPPKPKDTLMISRTPEVTCVVVDVSDEDPEVKFNWYVDGVEVHNAKTKPREEQYNSTYRVVSVLTVLHQDWLNGKEYKCKVSNKALPKPIEKTISKAKGQPREPQVYTLPPSREEMTKNQVSLTCLVKGFYPSDIAVEWESNGQPENNYKTTPPVLDSDGSFFLYSKLTVDKSRWQQGNVFSCSVMHEALHNHYTQKSLSLSP
light: DIVMTQSPATLSLSPGERATLSCTSSQSVYHANWLSWFQQKPGQPPKLLIYWASTLAYGVPSRFSGSGSGTDFTLTISSLQPEDAATYYCAGGYGGGRYAFGQGTKVEIKRTVAAPSVFIFPPSDEQLKSGTASVVCLLNNFYPREAKVQWKVDNALQSGNSQESVTEQDSKDSTYSLSSTLTLSKADYEKHKVYACEVTHQGLSSPVTKSFNRGEC
[6]
  Kd: 1600 nM
